These are literature values, as cited in paper PMC3930863.

By Kd is commonly meant the concentration at which binding is half-saturated.

The target in one data set is N-WASP (Homo sapiens). Kind of data set: isothermal titration calorimetry. Background: Isothermal titration calorimetry measures the heat released or taken up as one component is titrated into another.
Data set [1] concerns the target InlC (Listeria monocytogenes) (UniProt P71451). Kind of data set: isothermal titration calorimetry.
UniProt P71451, sequence (P71451 35-297): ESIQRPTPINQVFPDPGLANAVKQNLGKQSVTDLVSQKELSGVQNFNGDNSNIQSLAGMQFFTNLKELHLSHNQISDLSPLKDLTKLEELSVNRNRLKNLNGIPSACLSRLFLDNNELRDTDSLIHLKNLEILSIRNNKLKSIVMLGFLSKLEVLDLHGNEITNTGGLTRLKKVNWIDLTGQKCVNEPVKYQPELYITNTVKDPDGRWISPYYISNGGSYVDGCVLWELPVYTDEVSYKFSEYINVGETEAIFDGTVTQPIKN

Tuba SH3-6 (from UniProt Q6XZF7): the Kd in the data set with N-WASP (Homo sapiens) was 46.5 µM; in data set [1] it was 5.4 µM.
